For test [1], the target named is Human TRAIL-R2-Fc D148A (human) (UniProt O14763). The test is described as follows: SPR.
Test [2] deals with Human TRAIL-R2-Fc F112A (human) (UniProt O14763). Description: SPR. A general note: SPR reads the build-up and loss of mass on a sensor chip optically.
Test [3] addresses Human TRAIL-R2-Fc V167A (human) (UniProt O14763). The test is described as follows: SPR.
The target in test [4] is human TRAIL-R2-Fc E78A/D109A (human) (UniProt O14763). Description: SPR.
Test [5] addresses human TRAIL-R2-Fc K155A (human) (UniProt O14763). The test is described as follows: SPR.
Test [6] deals with human TRAIL-R2-Fc L110A/L114A (human) (UniProt O14763). The test is described as follows: SPR.
The target in test [7] is human TRAIL-R2-Fc M152A (human) (UniProt O14763). Description: SPR.
The target in test [8] is human TRAIL-R2-Fc M152A/R154A/K155A (human) (UniProt O14763). The test is described as follows: SPR.
The target of test [9] is human TRAIL-R2-Fc P150A (human) (UniProt O14763). The test is described as follows: SPR.
The target of test [10] is human TRAIL-R2-Fc R154A (human) (UniProt O14763). The test is described as follows: SPR.
The target of test [11] is Human CD155-Fc fusion protein (human) (UniProt P15151). Description: SPR.
Test [12] addresses Human TRAIL-R2-Fc D109A together with E78A (human) (UniProt O14763). Description: SPR.
The target of test [13] is Human TRAIL-R2-Fc double mutation L110A and L114A (human) (UniProt O14763). The test is described as follows: SPR.
The target of test [14] is Human TRAIL-R2-Fc fusion protein (wild type) (human) (UniProt O14763). The test is described as follows: SPR.
The target of test [15] is TRAIL-R1-Fc fusion protein (UniProt O00220). Description: SPR.
In test [16] the target is Recombinant UL141 ectodomain (soluble, released from the Fc fusion) (human cytomegalovirus (HCMV), FIX strain) (UniProt Q6RJQ3). Description: SEC; size-exclusion elution profiles of the purified proteins against marker proteins.
The target of test [17] is TRAIL-R1 ECD (Homo sapiens) (UniProt O00220). Description: SPR. Particulars: cited from earlier work.
Test [18] concerns the target TRAIL-R2 ECD (Homo sapiens) (UniProt O14763). Description: SPR. Particulars: cited from earlier work.

Human CD155-Fc fusion protein (human), sequence (P15151 21-343): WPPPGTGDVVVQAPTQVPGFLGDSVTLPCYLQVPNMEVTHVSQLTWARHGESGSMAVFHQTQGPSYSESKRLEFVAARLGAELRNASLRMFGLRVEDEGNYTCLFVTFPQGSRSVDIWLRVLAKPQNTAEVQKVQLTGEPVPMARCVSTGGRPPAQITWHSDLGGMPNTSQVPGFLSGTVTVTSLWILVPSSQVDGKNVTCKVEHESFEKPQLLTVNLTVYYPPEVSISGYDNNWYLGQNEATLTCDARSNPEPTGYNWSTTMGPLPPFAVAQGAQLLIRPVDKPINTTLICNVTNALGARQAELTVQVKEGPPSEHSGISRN
TRAIL-R1-Fc fusion protein, sequence (O00220 24-239): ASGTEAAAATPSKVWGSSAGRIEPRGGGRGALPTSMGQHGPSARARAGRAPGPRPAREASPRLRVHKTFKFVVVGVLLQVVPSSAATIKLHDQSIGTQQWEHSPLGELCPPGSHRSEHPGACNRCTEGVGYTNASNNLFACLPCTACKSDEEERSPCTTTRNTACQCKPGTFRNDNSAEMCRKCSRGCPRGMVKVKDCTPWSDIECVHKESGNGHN
TRAIL-R1 ECD (Homo sapiens), sequence (O00220 24-239): as above

A word on the Kd: it is the free concentration of one partner at which half of the binding sites on the other are occupied at equilibrium, for simple one-to-one binding. Broadly, the koff is the rate constant with which the complex falls apart. For orientation: kon means a measure of how fast the partners come together. The low end stands for slow association, the high end for fast association. With “HCMV UL141 ectodomain, soluble (released from the thrombin-cleavable Fc fusion) (from UniProt Q6RJQ3 37-278) (domain or fragment)”, the Kd stood at 55.3 nM in [1]; 630 nM in test [2]; 15.5 nM in [3]; 60.4 nM in test [4]; 7.74 nM in test [5]; 42.7 nM in [6]. Also, the Kd in test [7] worked out at 7.49 nM; in test [8] it was 7.39 nM; in test [9], 8.32 nM; in test [10] it was 6.26 nM. The koff stood at 0.0013 s⁻¹ in test [1]; 0.00566 s⁻¹ in [2]; 0.00048 s⁻¹ in test [3]; 0.00151 s⁻¹ in [4]; 0.00038 s⁻¹ in test [5]; 0.00064 s⁻¹ in [6]. Besides, the koff in test [7] was determined as 0.000382 s⁻¹; in test [8], 0.00027 s⁻¹; in test [9] it was 0.000391 s⁻¹; in test [10] it was 0.000243 s⁻¹. The kon in [1] was 23500 M⁻¹ s⁻¹; in test [2], 8980 M⁻¹ s⁻¹; in [3] it was 31000 M⁻¹ s⁻¹; in [4], 25000 M⁻¹ s⁻¹; in test [5], 49100 M⁻¹ s⁻¹; in test [6] it was 15000 M⁻¹ s⁻¹. The kon in test [7] turned out to be 51000 M⁻¹ s⁻¹; in test [8], 36500 M⁻¹ s⁻¹; in [9] it was 47000 M⁻¹ s⁻¹; in test [10], 38800 M⁻¹ s⁻¹.
As to “Pre-formed UL141–TRAIL-R2 complex (from UniProt Q6RJQ3;O14763)”, in test [11], the K Dave worked out at 2 nM, the Kd worked out at 2.19 nM, the dissociation rate constant (koff) is 0.000333 s⁻¹ and the kon came to 152000 M⁻¹ s⁻¹.
What is called stoichiometry N is the number of molecules, sites or subunits per partner or assembly. In the case of “Recombinant UL141 ectodomain (soluble, released from the Fc fusion) (from UniProt Q6RJQ3 37-278) (domain or fragment)”, the K Dave in test [11] is 2 nM. Also, the Kd in test [11] is 1.97 nM; in test [1] it was 55 nM; in [2] it was 630 nM; in test [3] it was 15 nM; in test [13] it was 43 nM; in [14], 5.96 nM. This substance displayed a Kd in test [15] of 2330 nM. Also, the koff in test [11] was 0.000346 s⁻¹; in test [14], 7.21e-05 s⁻¹; in test [15] it was 0.014 s⁻¹. Besides, the figures for the kon in test [11], in [14] and in test [15] were 176000 M⁻¹ s⁻¹, 12100 M⁻¹ s⁻¹ and 6020 M⁻¹ s⁻¹, respectively. This substance also came in with a fold reduction of binding affinity against wild type in test [12] of 10 fold. The same substance came in with a KDeq in test [15] of 2.27 µM. Further, in test [16], the stoichiometry N was found to be 2.
On to UL141 (from UniProt Q6RJQ3), for which the Kd in test [17] was 2300 nM; in test [18], 6 nM.

These data come from publication PMC3605307.
